According to patent publication US20110190477A1 (G2 INFLAMMATION, published 2011):
Values joined by “and” are separate entries in the source; they are usually repeats but may differ in a detail not shown here. Equal entries are not always repeated. No end group written: not given here. *: point of attachment. Biotin = O=C1N[C@H]2[C@H](CS[C@H]2CCCCC(=O)*)N1

T1: peptide A8 (… with Ala at position 6, F4 of the epitope) (human)
T1 construct: The label A8 and position 6 follow from 'Peptides A2-A13 contained a single alanine substitution at each amino acid position from 12 to 1 respectively'
T1 peptide: Biotin-SGSGVREEYAPPKVLC

T2: peptide A9 (… with Ala at position 5, Y3 of the epitope) (human)
T2 construct: The label A9 and position 5 follow from 'Peptides A2-A13 contained a single alanine substitution at each amino acid position from 12 to 1 respectively'
T2 peptide: Biotin-SGSGVREEAFPPKVLC

T3: peptide 3 (12 mer from the 2nd extracellular loop of human C5aR) (human)
T3 construct: worked out from 22 12 mers offset by one over 173-205; also called peptide no
T3 peptide: Biotin-SGSGRVVREEYFPPKV

T4: peptide 4 (12 mer from the 2nd extracellular loop of human C5aR) (human)
T4 construct: worked out from 22 12 mers offset by one over 173-205; also called peptide no
T4 peptide: Biotin-SGSGVVREEYFPPKVL

T5: peptide 5 (12 mer from the 2nd extracellular loop of human C5aR) (human)
T5 construct: worked out from 22 12 mers offset by one over 173-205; also called peptide no
T5 peptide: Biotin-SGSGVREEYFPPKVLC

T6: peptide 6 (12 mer from the 2nd extracellular loop of human C5aR) (human)
T6 construct: worked out from 22 12 mers offset by one over 173-205; also called peptide no
T6 peptide: Biotin-SGSGREEYFPPKVLCG

T7: peptide 7 (12 mer from the 2nd extracellular loop of human C5aR) (human)
T7 construct: worked out from 22 12 mers offset by one over 173-205; also called peptide no
T7 peptide: Biotin-SGSGEEYFPPKVLCGV

T8: human C5a receptor (human, UniProt P21730 1-350)
T8 construct: On human neutrophils, L1.2/hC5aR transfectants or neutrophils of hC5aR knock-in mice; also called hC5aR; C5aR1
T8 chain: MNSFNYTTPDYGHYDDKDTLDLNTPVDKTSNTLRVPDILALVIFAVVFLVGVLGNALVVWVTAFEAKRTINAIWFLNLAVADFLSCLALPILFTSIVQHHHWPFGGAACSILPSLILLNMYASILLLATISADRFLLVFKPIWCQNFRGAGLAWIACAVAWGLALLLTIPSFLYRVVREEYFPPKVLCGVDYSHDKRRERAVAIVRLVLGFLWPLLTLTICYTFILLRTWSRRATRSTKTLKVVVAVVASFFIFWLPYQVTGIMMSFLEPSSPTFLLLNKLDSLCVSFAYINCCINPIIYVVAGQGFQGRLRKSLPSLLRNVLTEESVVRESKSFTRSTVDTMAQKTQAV


How the values were obtained:
[1] = biological target: T1, peptide A8 (… with Ala at position 6, …); experiment: peptide ELISA, alanine-scan peptides
Protocol: (§1) A 384 well streptavidin-coated plate (Nunc) was blocked with 20 μl of blocking buffer (1% w/v BSA in PBS) per well. The plate was washed 4 times with PBS/Tween20 buffer (0.1% v/v Tween 20 in PBS). 20 μl of diluted peptide solution was transferred into a well and the plate incubated for 1 hour at room temperature. After washing the plate 4 times (as above) 20 μl antibody (0.5, 1, 1.25, 2.5 or 5 μg/ml) was added to the well and the plate was incubated for 1 hour at 20° C. The plate was washed 4 times as above then 20 μlHRP-conjugated anti-mouse IgG (1:5000 dilution in PBS/Tween 20) was added to each well. After a 1 hour incubation at room temperature the plate was washed 3 times (as above) then twice with PBS to remove traces of Tween. The presence of peroxidase was detected by adding 20 μl of freshly prepared TMB Substrate reagent (BD Opt EIA) to each well and incubating at room temperature for 20 min. Finally the plate was read at 650 nm/450 nm.
(§2) Peptide A1 had no A1a substitution and peptide A14 was a scrambled version of peptide A1. Peptides A2-A13 contained a single alanine substitution at each amino acid position from 12 to 1 respectively. Binding of antibodies to the peptides coated on ELISA plates was carried out as described above.

[2] = biological target: T2, peptide A9 (… with Ala at position 5, …); experiment: peptide ELISA, alanine-scan peptides
Protocol: as §1, §2

[3] = biological target: T3, peptide 3 (12 mer from the 2nd …); experiment: peptide ELISA, biotin peptide on streptavidin plate
[4] = biological target: T4, peptide 4 (12 mer from the 2nd …); experiment: as above
[5] = biological target: T5, peptide 5 (12 mer from the 2nd …); experiment: as above
[6] = biological target: T6, peptide 6 (12 mer from the 2nd …); experiment: as above
[7] = biological target: T7, peptide 7 (12 mer from the 2nd …); experiment: as above
human C5a receptor = biological target: T8, human C5a receptor; experiment: saturation binding to human neutrophils at 4 C, flow cytometry
Protocol: Human neutrophils, isolated as described above, were resuspended in dPBS and 1×10⁵ cells (in 25 μl) were dispensed into wells of a 96-well plate. An equal volume (25 μl) of 2× antibody (diluted in PBS) was added to each well. The final antibody concentration using 2-fold serial dilution ranged from 40 to 0 ug/ml (using unlabelled hAb-Q, hAb-J and 7F3). Cells and antibody were incubated for 20 min times at 4° C. After incubation, 100 μl PBS+1% BCS was added to each well and the plate centrifuged at 2,000 rpm for 3 min. […] The cells were washed once as above and resuspended in PBS+1% FCS for analysis by flow cytometry. FSC v SSC scatter was used to identify neutrophils, with the Median Fluorescence Intensity (MFI) determined for each sample. EC50 values were determined by fitting data (MFI—background vs log₁₀[antibody concentration]) to the sigmoidal dose-response (variable slope) i.e. 4-parameter logistic equation using GraphPad Prism (v4.0) software. Bₘₐₓ and KD were determined by fitting data to the one-site binding hyperbola equation.

Binder	binding result [1]	binding result [2]	binding result [3]	binding result [4]	binding result [5]	binding result [6]	binding result [7]	EC50 (human C5a receptor)	Kd (human C5a receptor)
humanized anti-C5aR antibody hAb-Q (antibody, human IgG4 S228P, kappa, IgG4 with the Ser228Pro mutation; also called antibody Q; anti-C5aR ab) light: DVVMTQSPLSLPVTLGEPASISCRSSQSLVHSNGNTYLHWYLQKPGQSPQLLIYKVSNRFSGVPDRFSGSGSGTDFTLKISRVEAEDVGVYFCSQSTLVPLTFGQGTKLEIKRTVAAPSVFIFPPSDEQLKSGTASVVCLLNNFYPREAKVQWKVDNALQSGNSQESVTEQDSKDSTYSLSSTLTLSKADYEKHKVYACEVTHQGLSSPVTKSFNRGEC heavy: not shown	no binding	no binding	binds	binds	binds	binds	binds	20 nM to 25 nM (2×) and ~3 µg/mL	20 nM to 25 nM (2×) and ~3 µg/mL
mouse anti-C5aR monoclonal antibody 7F3 (antibody, V domains shown, Mouse monoclonal from hybridoma ECACC 00110609; also called m7F3; mouse 7F3) VH: QVQLQQSGPELVKPGASVKISCKASGYAFSNSWMNWVKQRPGKGLEWIGRIYPGDGDTKYNGKFKGKATLTADKSSSTAYMQLSSLTSEDSAVYFCARFLLISTVTAVDYWGQGTTLTVSS VL: DVVMTQSPLSLPVSLGNQASISCRSSQSLVHSNGNTYLHWYLQKPGQSPKLLIYKVSNRFSGVPDRFSGSGSGTDFSLKISRVEAEDLGVYFCSQSTLVPLTFGAGTKLELK	–	–	binds	binds	binds	binds	binds	8 to 10 nM	8 to 10 nM
humanized anti-C5aR antibody hAb-J (antibody, human IgG4 S228P, kappa, also called antibody J) light: DVVMTQSPLSLPVTLGEPASISCRSSQSLVHSNGNTYLHWYLQKPGQSPQLLIYKVSNRFSGVPDRFSGSGSGTDFTLKISRVEAEDVGVYFCSQSTLVPLTFGQGTKLEIKTVAAPSVFIFPPSDEQLKSGTASVVCLLNNFYPREAKVQWKVDNALQSGNSQESVTEQDSKDSTYSLSSTLTLSKADYEKHKVYACEVTHQGLSSPVTKSFNRGEC heavy: not shown	no binding	no binding	–	–	–	–	–	–	–
